The chains are these.
B1: scFv-A4 (scFv)
scFv: QAALTQPSSVSTNPGGTVKITCSGGNGNYGWYQQKSPGSAPVTVIYSNNKRPSDIPSRFSGSKSGSTATLTITGVQVDDEAVYFCGAYDNTYVGVFGAGTTLTVLGQSSRSSSGGGSSGGGGSAVTLDESGGGLQTPGGGLSLVCKASGFTFSSYSMQWVRQTPGKGLEFVAGIGYSDSYTYFGPAVKGRATISRDNGQNTVRLQLNNLRAEDTATYYCARSADTIYGCTHPWCSADNIDAWGHGTEVIVSSTSGQAGQ
notes: Chicken scFv (VL-linker-VH) from a pComb3 phage library, expressed soluble in E. coli; It recognises the Gal-α-(1→3)-Gal glycan, not a protein surface
B2: scFv-G12 (scFv)
scFv: QAALTQPSSVSANPGETVKITCSGGSYHYGWYQQKSPGSAPVTVIYSNNQRPSGIPSRFSGSTSDSTGTLTITGVQADDEAVYFCGSYDSSNTYAGIFGAGTTLTVLGQSSRSSSGGGSSGGGGSAVTLDESGGGFQTPGGALSLVCKASGFTFSSYSMQWVRQAPGKGLEFVAGIGNSDRYTYFGPAVKGRATISRDNGQSTLRLQLNNLRAEDTATYFCARSGDSGNGCTHPWCSADNINAWGHGTEVIVSSTSGQAGQ
notes: Chicken scFv (VL-linker-VH), expressed soluble in E. coli; It recognises the Gal-α-(1→3)-Gal glycan
B3: scFv-A11 (scFv)
scFv: QAALTQPSSVSANPGETVKITCSGGGSYGGSYYYGWYQQKSPGSAPVTVIYSNDNRPSDIPSRFSGSTSGSTSTLTITGVQVDDEAVYYCGTYDSSYVGIFGAGTALTVLGQSSRSSGGGSSGGGGSAVTLDESGGGLQTPGGGLSLVCKASGFTFSSYSMQWVRQTPGKGLEFVAGIGYSDSYTYFGPAVKGRATISRDNGQNTVRLQLNNLRAEDTATYYCARSADTIYGCTHPWCSADNIDAWGHGTEVIVSSTSGQAGQ
notes: as for B2

This test concerns the target T1, Gal-α-(1→3)-Gal target of the SPR experiment (ligand on the chip not stated).
T1 construct: also called target glycan
Briefly: SPR (BIAcore), Kd from kon and koff; ligand on the chip not stated. As for the experimental part: Dissociation constants (Kd) for the scFvs were calculated from the measured association (kon) and dissociation (koff) rate constants by using surface plasmon resonance (SPR) BIAcore instrumentation and software (GE).
The molecule B1 displayed a Kd of 57.3 nM.

B2 gave a Kd of 18 nM.

As to B3, the affinity, expressed as Kd, was 8.04 nM.

For the origin of these results see patent US20160003839A1 (NATIONAL UNIVERSITY OF IRELAND GALWAY, published 2016).
